What was measured:
[1] = Binding to sugar chains, summary of Tables 2 to 5; settings: sugar chains No. 015, 201 to 203, and 401 to 418
Protocol: (§1) Details of the FAC method are described in Patent Document 2 filed by some of the present applicants, for example.
(§2) Binding constants (at 25° C.) of PhoSL, SRL, NSL and LSL belonging to the fucose α1→6 specific lectin for various sugar chains are shown in Tables 2 to 5.
The AAL and AOL bind to the fucose α1→6 sugar chains (sugar chains No. 015, 201 to 203, and 401 to 418), as well as to the glycolipid-type sugar chain excluding the fucose α1→6 (sugar chains No. 718, 722, 723, 727, 909, 910 and 933). The LCL and PSL bind to the fucose α1→6 sugar chain, as well as to sugar chain excluding the α1→6 fucose (sugar chains No. 003, and 005 to 014).
Furthermore, the binding constant of the fucose α1→6 specific lectin is not decreased even if a sialic acid is added to the fucose α1→6 sugar chain (sugar chains No. 601 and 602). In addition, the fucose α1→6 specific lectin also strongly binds to the triple-strand (sugar chains No. 407 to 413) and the four-strand (sugar chains No. 418) of the fucose uα1→6 sugar chain.

serum fucosylated PSA = test: Sandwich ELISA, anti-PSA antibody and biotin-labeled lectin; assay type: binding, human
Protocol: The anti-PSA antibody from which sugar chains had been removed was diluted to 5 μg/mL with PBS. 25 μL of this diluted solution was added to each well of an ELISA plate and allowed to stand at 37° C. for 12 hours, and then the additive solution was discarded.
150 μL of PBS containing 0.05% Tween 20 (product name: polyoxyethylene sorbitan monolaurate, from Nacalai Tesque, Inc.) was added to each well, and then the additive solution was discarded. This manipulation was repeated three times in total.
25 μL of 1% BSA/PBS was added to each well and allowed to stand at 37° C. for 1 hour, and then the additive solution was discarded.
150 μL of PBS containing 0.05% Tween 20 was added to each well, and then the additive solution was discarded. This manipulation was repeated three times in total.
To graph a calibration curve, 25 μL of the fucosylated PSA reference standard diluted with 1% BSA/PBS to a concentration of 0 to 200 ng/mL was added to each well and allowed to stand at room temperature for 1 hour, and then the additive solution was discarded. In addition, to detect the fucosylated PSA in the serum of the subject by the lectin, 25 μL of serum of “Healthy 1” and “Prostate cancer 4” 2-fold diluted with PBS was added to each well and allowed to stand at room temperature for 1 hour, and then the additive solution was discarded.
In Reference Example 1, 25 μL of a biotin-labeled PhoSL diluted to 0.1 μg/mL with 0.1% BSA/PBS (pH 7.4) was added to each well and allowed to stand at 4° C. for 30 minutes, and then the additive solution was discarded. In Example 1, 25 μL of a biotin-labeled PhoSL diluted to 0.1 μg/mL with 0.1% BSA/10-fold diluted PBS+glycine-NaOH (pH 9.6) was added to each well and allowed to stand at 4° C. for 30 minutes, and then the additive solution was discarded.
25 μL of a horseradish peroxidase (HRP)-labeled streptavidin solution (from Vector Laboratories, Inc., concentration: 0.4 μg/mL, in 1% BSA/PBS) was added to each well and allowed to stand at room temperature for 30 minutes, and then the additive solution was discarded.
25 μL of chromogenic substrate for HRP (product name: TMB, from Kirkegaard & Perry Laboratories, Inc.) was added to each well and allowed to stand at room temperature for 10 minutes.
25 μL of 1M phosphoric acid was added to terminate the reaction.
Absorbance (Ab) at 450 nm and 630 nm was measured using a plate reader, and a measurement (Ab450-630) was obtained.
A calibration curve was graphed by plotting signals (reaction values, Ab450-630) of the fucosylated PSA reference standard with the biotin-labeled PhoSL. A Signal (Ab450-630) of the biotin-labeled PhoSL corresponding to the fucosylated PSA concentration of 10 ng/mL was defined as 10 U/mL.
The signals of biotin-labeled PhoSL (Ab450-630) for the serum fucosylated PSA in the subject samples A were assigned to the calibration curve to calculate reaction values (unit: U/mL).
The PhoSL reaction values for the subject samples A were measured by the same operation as in Example 1. From the PhoSL reaction values, an average value and a median value were determined. Furthermore, a standard cutoff value (89.7 U/mL) was used to determine a detection rate (positive rate) of the prostate cancer patients, and a false detection rate (false positive rate) of the healthy persons.
Comparative Example 2 in Table 9 indicates results of detecting the serum fucosylated PSA using AAL (AAL reaction values) in the subject samples A. Specifically, in Reference Example 1, AAL reaction values were measured in the same manner as in Reference Example 1 except that the biotin-labeled PhoSL was replaced with a biotin-labeled AAL. A standard cut-off value for the AAL reaction values was 894.8 U/mL. As in Example 2, an average value, a median value, a positive rate and a false positive rate were determined from the AAL reaction values.

[2] = FAC binding constant (Table 5 entry); settings: Table 5: sugar chain having no fucose; at 25° C.
Protocol: as §1, §2

[3] = subject samples A, 7 healthy persons, pH 7.4
[4] = subject samples A, 9 patients, pH 7.4

binding to the fucose α1→6 sugar chains (in words) [1]: bind | Binding constant for sugar chain No. 728 [2]: <1000 M⁻¹
B1: AAL: Aleuria aurantia lectin, has affinity for fucose α1→6 but is not specific; from J-OIL MILLS, Inc. (protein)
chain: PTEFLYTSKIAAISWAATGGRQQRVYFQDLNGKIREAQRGGDNPWTGGSSQNVIGEAKLFSPLAAVTWKSAQGIQIRVYCVNKDNILSEFVYDGSKWITGQLGSVGVKVGSNSKLAALQWGGSESAPPNIRVYYQKSNGSGSSIHEYVWSGKWTAGASFGSTVPGTGIGATAIGPGRLRIYYQATDNKIREHCWDSNSWYVGGFSASASAGVSIAAISWGSTPNIRVYWQKGREELYEAAYGGSWNTPGQIKDASRPTPSLPDTFIAANSSGNIDISVFFQASGVSLQQWQWISGKGWSIGAVVPTGTPAGW
lectin reaction value B of Healthy 1 (serum fucosylated PSA; serum of Healthy 1, pH in lectin reaction 7.4): 1099.6 U/mL | lectin reaction value of Healthy 2 (serum fucosylated PSA; serum of Healthy 2, pH in lectin reaction 7.4): 854.6 U/mL | lectin reaction value of Healthy 3 (serum fucosylated PSA; serum of Healthy 3, pH in lectin reaction 7.4): 1062.7 U/mL | lectin reaction value of Healthy 4 (serum fucosylated PSA; serum of Healthy 4, pH in lectin reaction 7.4): 115.0 U/mL | lectin reaction value of Healthy 5 (serum fucosylated PSA; serum of Healthy 5, pH in lectin reaction 7.4): 32.3 U/mL | lectin reaction value of Healthy 6 (serum fucosylated PSA; serum of Healthy 6, pH in lectin reaction 7.4): 1193.1 U/mL | lectin reaction value of Healthy 7 (serum fucosylated PSA; serum of Healthy 7, pH in lectin reaction 7.4): 1028.8 U/mL | lectin reaction value of Prostate cancer 1 (serum fucosylated PSA; serum of Prostate cancer 1, GS 4 (2 + 2), pH in lectin reaction 7.4): 831.2 U/mL | lectin reaction value of Prostate cancer 2 (serum fucosylated PSA; serum of Prostate cancer 2, GS 5 (2 + 3), pH in lectin reaction 7.4): 1032.3 U/mL | lectin reaction value of Prostate cancer 3 (serum fucosylated PSA; serum of Prostate cancer 3, GS 6 (3 + 3), pH in lectin reaction 7.4): 1152.7 U/mL | lectin reaction value A of Prostate cancer 4 (serum fucosylated PSA; serum of Prostate cancer 4, GS 6 (3 + 3), pH in lectin reaction 7.4): 926.5 U/mL | lectin reaction value of Prostate cancer 5 (serum fucosylated PSA; serum of Prostate cancer 5, GS 7 (3 + 4), pH in lectin reaction 7.4): 1025.0 U/mL | lectin reaction value of Prostate cancer 6 (serum fucosylated PSA; serum of Prostate cancer 6, GS 7 (3 + 4), pH in lectin reaction 7.4): 961.5 U/mL | lectin reaction value of Prostate cancer 7 (serum fucosylated PSA; serum of Prostate cancer 7, GS 8 (3 + 5), pH in lectin reaction 7.4): 1211.9 U/mL | lectin reaction value of Prostate cancer 8 (serum fucosylated PSA; serum of Prostate cancer 8, GS 8 (4 + 4), pH in lectin reaction 7.4): 1010.0 U/mL | lectin reaction value of Prostate cancer 9 (serum fucosylated PSA; serum of Prostate cancer 9, GS 8 (4 + 4), pH in lectin reaction 7.4): 988.1 U/mL | reaction value, Healthy person group, Average value (serum fucosylated PSA; [3]): 769.4 U/mL | reaction value, Healthy person group, Median value (serum fucosylated PSA; [3]): 1028.8 U/mL | reaction value, Prostate cancer patient group, Average value (serum fucosylated PSA; [4]): 1015.5 U/mL | reaction value, Prostate cancer patient group, Median value (serum fucosylated PSA; [4]): 1010.0 U/mL | reaction value, GS6, Mean value (serum fucosylated PSA; subject samples A, n 2, pH 7.4): 1039.6 U/mL | reaction value, GS6, Median value (serum fucosylated PSA; subject samples A, n 2, pH 7.4): 1039.6 U/mL | reaction value, GS7, Mean value (serum fucosylated PSA; subject samples A, n 2, pH 7.4): 993.3 U/mL | reaction value, GS7, Median value (serum fucosylated PSA; subject samples A, n 2, pH 7.4): 993.3 U/mL | reaction value, Negative (GS5 or less), Mean value (serum fucosylated PSA; subject samples A, n 2, pH 7.4): 931.8 U/mL | reaction value, Negative (GS5 or less), Median value (serum fucosylated PSA; subject samples A, n 2, pH 7.4): 931.8 U/mL | reaction value, GS8 or more, Mean value (serum fucosylated PSA; subject samples A, n 3, pH 7.4): 1070.0 U/mL | reaction value, GS8 or more, Median value (serum fucosylated PSA; subject samples A, n 3, pH 7.4): 1010.0 U/mL

— US20200264182A1, “METHOD FOR DETECTING PROSTATE CANCER” (J-OIL MILLS, INC., priority 2017, published 2020)
